Where two headings read alike, the source gives them in different places.
How the values were obtained:
[1] = biological target: T1, human FolR3 (Homo sapiens, UniProt P41439); conditions: IgG injected for 60 seconds at 500 nM
Protocol: (§1) Binding of FolR1 binders as IgG or in the T-cell bispecific format to different recombinant folate receptors (human FolR1, 2 and 3, murine FolR1 and cynomolgus FolR1; all as Fc fusions) was assessed by surface plasmon resonance (SPR). All SPR experiments were performed on a Biacore T200 at 25° C. with HBS-EP as running buffer (0.01 M HEPES pH 7.4, 0.15 M NaCl, 3 mM EDTA, 0.005% Surfactant P20, Biacore, Freiburg/Germany).
(§2) First the anti-FolR1 IgGs were analyzed by single injections (Table 1) to characterize their crossreactivity (to human, murine and cyno FolR1) and specificity (to human FolR1, human FolR2, human FolR3). Recombinant biotinylated monomeric Fc fusions of human, cynomolgus and murine Folate Receptor 1 (FolR1-Fc) or human Folate Receptor 2 and 3 (FolR2-Fc, FolR3-Fc) were directly coupled on a SA chip using the standard coupling instruction (Biacore, Freiburg/Germany). The immobilization level was about 300-400 RU. The IgGs were injected for 60 seconds at a concentration of 500 nM.

[2] = biological target: murine FolR1 (Mus musculus, UniProt P35846); conditions: IgG injected for 60 seconds at 500 nM
Protocol: as §1, §2

[3] = biological target: T2, human FolR2 (Homo sapiens, UniProt P14207); conditions: IgG injected for 60 seconds at 500 nM
Protocol: as §1, §2

[4] = test system: cynomolgus FolR1; conditions: IgG injected for 60 seconds at 500 nM
Protocol: as §1, §2

[5] = biological target: T3, human FolR1 (Homo sapiens, UniProt P15328); conditions: IgG injected for 60 seconds at 500 nM
Protocol: as §1, §2

[6] = biological target: murine FolR1 (Mus musculus, UniProt P35846, C103A); conditions: Fab-format, generic multi-framework sub-libraries, 25° C.
Protocol: (§3) Immobilization of antigens (ligand): Recombinant antigens were diluted with PBST (10 mM phosphate, 150 mM sodium chloride pH 7.4, 0.005% Tween 20) to […] injected at 30 μl/minute in vertical orientation. Injection of analytes: For ‘one-shot kinetics’ measurements, injection direction was changed to horizontal orientation, two-fold dilution series of purified Fab (varying concentration ranges) were injected simultaneously along separate channels 1-5, with association times of 200 s, and dissociation times of 600 s. Buffer (PBST) was injected along the sixth channel to provide an “in-line” blank for referencing. Association rate constants (kon) and dissociation rate constants (koff) were calculated using a simple one-to-one Langmuir binding model in ProteOn Manager v3.1 software by simultaneously fitting the association and dissociation sensorgrams. The equilibrium dissociation constant (KD) was calculated as the ratio koff/kon.
(§4) Immobilization of antigens (ligand): Recombinant antigens were diluted with PBST (10 mM phosphate, 150 mM sodium chloride pH 7.4, 0.005% Tween 20) to 10 μg/ml, then injected at 30 μl/minute in vertical orientation. Injection of analytes: For ‘one-shot kinetics’ measurements, injection direction was changed to horizontal orientation, two-fold dilution series of purified Fab (varying concentration ranges) were injected simultaneously along separate channels 1-5, with association times of 150 or 200 s, and dissociation times of 200 or 600 s, respectively. Buffer (PBST) was injected along the sixth channel to provide an “in-line” blank for referencing. Association rate constants (kon) and dissociation rate constants (koff) were calculated using a simple one-to-one Langmuir binding model in ProteOn Manager v3.1 software by simultaneously fitting the association and dissociation sensorgrams. The equilibrium dissociation constant (KD) was calculated as the ratio koff/kon.

[7] = biological target: cynomolgus FolR1; conditions: read-out: KD cyFolR1; Fab-format, generic multi-framework sub-libraries, 25° C.
Protocol: as §3, §4

[8] = biological target: T3, human FolR1; conditions: read-out: KD huFolR1; Fab-format, generic multi-framework sub-libraries, 25° C.
Protocol: as §3, §4

[9] = biological target: T1, human FolR3; assay: SPR affinity of selected Fab clones (ProteOn XPR36); assay type: binding; set-up: the extracellular domain of the antigen linked to the hinge region of Fc-knob; made in house; host or cells: HEK293 EBNA; conditions: Fab-format, generic multi-framework sub-libraries, 25° C.
[10] = biological target: T2, human FolR2; assay: as above; assay type: binding; set-up: the extracellular domain of the antigen linked to the hinge region of Fc-knob; made in house; host or cells: HEK293 EBNA; conditions: Fab-format, generic multi-framework sub-libraries, 25° C.
[11] = test system: cynomolgus Folate Receptor 1 (FolR1-Fc); conditions: bivalent binding (avidity), ligand cyFolR1
Protocol: as §1
(§5) The avidity of the interaction between the anti-FolR1 IgGs or T cell bispecifics and the recombinant folate receptors was determined as described below (Table 9). Recombinant biotinylated monomeric Fc fusions of human, cynomolgus and murine Folate Receptor 1 (FolR1-Fc) were directly coupled on a SA chip using the standard coupling instruction (Biacore, Freiburg/Germany). The immobilization level was about 300-400 RU. The anti-FolR1 IgGs or T cell bispecifics were passed at a concentration range from 2.1 to 500 nM with a flow of 30 μL/minutes through the flow cells over 180 seconds. The dissociation was monitored for 600 seconds. […] The binding curves resulting from the bivalent binding of the IgGs or T cell bispecifics were approximated to a 1:1 Langmuir binding and fitted with that model (which is not correct, but gives an idea of the avidity). The apparent avidity constants for the interactions were derived from the rate constants of the fitting using the Bia Evaluation software (GE Healthcare).

[12] = biological target: murine Folate Receptor 1 (FolR1-Fc) (Mus musculus, UniProt P35846); conditions: bivalent binding (avidity), ligand muFolR1; 19H3 IgG with folate 2.3 μM in running buffer
Protocol: as §1, §5

[13] = biological target: T4, human Folate Receptor 1 (FolR1-Fc) (Homo sapiens, UniProt P15328); assay: SPR avidity to Folate Receptor 1 (bivalent binding)
T4 construct: the extracellular domain of the antigen linked to the hinge region of Fc-knob; made in house; host or cells: HEK293 EBNA
Text: The immobilization level was about 300-400 RU. […] The dissociation was monitored for 600 seconds.

[14] = test system: HEK cells transiently transfected with cyno FolR1; assay: Flow cytometry cross-reactivity on transfected HEK cells; assay type: binding, cynomolgus; conditions: IgG
Text: FIGS. 4A-B depict graphs summarizing cross-reactivity of FolR1 binders to cyFoLR1. Cross-reactivity of the FolR1 antibodies to cyno FolR1 was addressed on HEK cells transiently transfected with cyFolR1 by flow cytometry.
(§6) New FolR1 hinders were generated via Phage Display using either a Fab library or a common light chain library using the CD3 light chain. The identified binders were converted into a human IgG1 format and binding to FolR1 high expressing HeLa cells was addressed. As reference molecule the human FolR1 binder Mov19 was included. […] In a next step the selected clones were tested for specificity to human FolR1 by excluding binding to the closely related human FolR2. HEK cells were transiently transfected with either human FolR1 or human FolR2 to address specificity. […] Therefore these clones were excluded from further characterization. In parallel cross-reactivity of the FolR1 clones to cyno FolR1 was addressed by performing binding studies to HEK cells transiently transfected with cyno FolR1. […] Subsequently three human FolR1 specific cyno cross-reactive binders were converted into TCB format and tested for induction of T cell killing and T cell activation. […] As reference molecule Mov19 FolR1 TCB was included in all studies. These FoLR1 TCBs were then used to compare induction of internalization after binding to FolR1 on HeLa cells.

[15] = test system: huFolR1-Fc; assay: SPR epitope binning; assay type: binding, human
Protocol: 500 nM huFolR1-Fc was then captured for 60 s, followed by 500 nM of the different binders for 30 s. The surface was regenerated with two injections of 10 mM glycine pH 2 for 30 s each.

[16] = test system: HEK cells transiently transfected with human FolR1 or human FolR2; assay: Flow cytometry specificity on transfected HEK cells; assay type: binding; conditions: IgG
Protocol: FIGS. 3A-B depict graphs summarizing specificity of FolR1 binders for FolR1. Binding of FolR1 IgGs to HEK cells transiently transfected with either FolR1 or FolR2 was analyzed by flow cytometry to identify clones which bind specifically to FolR1 and not to FolR2.
as §6

[17] = bivalent binding (avidity), ligand huFolR1

Row | Molecule | Binding to huFolR3 [1] | Binding to muFolR1 [2] | Binding to huFolR2 [3] | Binding to cyFolR1 [4] | Binding to huFolR1 [5] | KD muFolR1 [6] | Kd [7] | Kd [8] | KD huFolR3 [9] | KD huFolR2 [10] | also measured
1 | 5D9: anti-FolR1 clone, generic multi-framework library (Vk3_20/VH1_46); Fab and IgG (antibody, V domains shown) VH: QVQLVQSGAEVKKPGASVKVSCKASGYTFTSYYMHWVRQAPGQGLEWMGIINPSGGSTSYAQKFQGRVTMTRDTSTSTVYMELSSLRSEDTAVYYCARSYIDMDYWGQGTLVTVSS VL: EIVLTQSPGTLSLSPGERATLSCRASQSVSSSYLAWYQQKPGQAPRLLIYGASSRATGIPDRFSGSGSGTDFTLTISRLEPEDFAVYYCQQDNWSPTFGQGTKVEIK | + | − | + | + | + | no binding | 0.0059 µM | 0.0086 µM | no binding | no binding | 
2 | 6B6: anti-FolR1 clone, generic multi-framework library (Vk3_20/VH1_46); Fab and IgG (antibody, V domains shown) VH: QVQLVQSGAEVKKPGASVKVSCKASGYTFTSYYMHWVRQAPGQGLEWMGIINPSGGSTSYAQKFQGRVTMTRDTSTSTVYMELSSLRSEDTAVYYCARSYVDMDYWGQGTLVTVSS VL: EIVLTQSPGTLSLSPGERATLSCRASQSVSSSYLAWYQQKPGQAPRLLIYGASSRATGIPDRFSGSGSGTDFTLTISRLEPEDFAVYYCQQDIWSPTFGQGTKVEIK | + | − | + | + | + | no binding | 0.0094 µM | 0.0145 µM | no binding | no binding | 
3 | 36F2: anti-FolR1 clone, generic multi-framework library (Vk_3_20/VH_1_46); Fab and IgG (antibody, V domains shown) VH: QVQLVQSGAEVKKPGASVKVSCKASGYTFTSYYMHWVRQAPGQGLEWMGIINPSGGSTSYAQKFQGRVTMTHDTSTSTVYMELSSLRSEDTAVYYCARSFFTGFHLDYWGQGTLVTVSS VL: EIVLTQSPGTLSLSPGERATLSCRASQSVSSSYLAWYQQKPGQAPRLLIYGASSRATGIPDRFSGSGSGTDFTLTISRLEPEDFAVYYCQQYTNEHYYTFGQGTKVEIK | − | + | − | + | + |  |  |  | no binding | no binding | ka [11]: 3.02e+06 M⁻¹ s⁻¹; kd [11]: 0.016 s⁻¹; ka [12]: 370000 M⁻¹ s⁻¹; kd [12]: 0.000603 s⁻¹; dissociation from huFolR1 (in words) [13]: dissociated rapidly from huFolR1; ka [13, 17]: 2.62e+06 M⁻¹ s⁻¹; kd [13, 17]: 0.0151 s⁻¹; binding to cyno FolR1 on transfected HEK cells [14]: bind comparably well human and cyno FoLR1; epitope characterization on human FolR1 (in words) [15]: binds to a different epitope than Mov19 and Farletuzumab; epitope characterization on human FolR1 (in words) ([15]; listed as 36F2 IgG): Measure not possible, huFolR1 dissociates too rapidly; specificity for human FolR1 versus human FolR2 on transfected HEK cells [16]: specifically to human FolR1 and not to human FolR2
4 | 11F8: anti-FolR1 clone, generic multi-framework library (Vk_1_5/VH_1_69); Fab and IgG (antibody, V domains shown) VH: QVQLVQSGAEVKKPGSSVKVSCKASGGTFSSYAISWVRQAPGQGLEWMGGIIPIFGTANYAQKFQGRVTITADKSTSTAYMELSSLRSEDTAVYYCARAVFYRAWYSFDYWGQGTTVTVSS VL: DIQMTQSPSTLSASVGDRVTITCRASQSISSWLAWYQQKPGKAPKLLIYDASSLESGVPSRFSGSGSGTEFTLTISSLQPDDFATYYCQQYTSPPPTFGQGTKVEIK | + | + | + | + | + |  | 0.794 µM | 0.632 µM | no binding | no binding | 
